From patent US20140087995A1 (published 2014)
Numbered stars: 1 amine (or outer) side, 2 acyl side, 3 side chain; on linkers, the order of the positions; unused ones are H or OH. Bridge positions count the residues as written; N and C are the ends. Side chains are listed from the residue outwards. Ends that are not written are not given here. * marks the point of attachment. C20 diacid = O=C(O)CCCCCCCCCCCCCCCCCCC(=O)*; γGlu = O=C(O)[C@H](CCC(=O)[*:2])N[*:1]

T1: human calcitonin receptor (human, UniProt P30988 25-474)
T1 sequence (looked up): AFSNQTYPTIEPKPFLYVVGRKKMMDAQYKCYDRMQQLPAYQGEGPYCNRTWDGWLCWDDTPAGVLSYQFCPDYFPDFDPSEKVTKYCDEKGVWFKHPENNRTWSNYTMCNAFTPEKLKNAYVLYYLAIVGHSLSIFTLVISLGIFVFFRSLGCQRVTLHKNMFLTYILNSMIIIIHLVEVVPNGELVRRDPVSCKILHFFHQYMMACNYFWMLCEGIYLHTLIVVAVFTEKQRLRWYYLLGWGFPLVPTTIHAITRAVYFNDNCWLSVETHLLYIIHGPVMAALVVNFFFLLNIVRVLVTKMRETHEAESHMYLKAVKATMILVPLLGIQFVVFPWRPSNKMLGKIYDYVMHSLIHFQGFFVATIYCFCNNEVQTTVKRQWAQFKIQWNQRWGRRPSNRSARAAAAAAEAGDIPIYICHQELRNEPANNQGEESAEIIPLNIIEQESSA

B1: N^ε1-[(4S)-4-carboxy-4-(19-carboxynonadecanoylamino)butanoyl]-[Arg17,Pro21,Pro27,Glu35]-h-amylin (peptide)
peptide: K([γGlu-C20 diacid])CNTATCATQRLANFLRHSSPNFGAIPSSTNVGSETY-NH2
modifications: disulfide 2-7; N-terminus assumed
SMILES: CC[C@H](C)[C@H](NC(=O)[C@H](C)NC(=O)CNC(=O)[C@H](Cc1ccccc1)NC(=O)[C@H](CC(N)=O)NC(=O)[C@@H]1CCCN1C(=O)[C@H](CO)NC(=O)[C@H](CO)NC(=O)[C@H](Cc1c[nH]cn1)NC(=O)[C@H](CCCNC(=N)N)NC(=O)[C@H](CC(C)C)NC(=O)[C@H](Cc1ccccc1)NC(=O)[C@H](CC(N)=O)NC(=O)[C@H](C)NC(=O)[C@H](CC(C)C)NC(=O)[C@H](CCCNC(=N)N)NC(=O)[C@H](CCC(N)=O)NC(=O)[C@@H](NC(=O)[C@H](C)NC(=O)[C@@H]1CSSC[C@H](NC(=O)[C@@H](N)CCCCNC(=O)CC[C@H](NC(=O)CCCCCCCCCCCCCCCCCCC(=O)O)C(=O)O)C(=O)N[C@@H](CC(N)=O)C(=O)N[C@@H]([C@@H](C)O)C(=O)N[C@@H](C)C(=O)N[C@@H]([C@@H](C)O)C(=O)N1)[C@@H](C)O)C(=O)N1CCC[C@H]1C(=O)N[C@@H](CO)C(=O)N[C@@H](CO)C(=O)N[C@H](C(=O)N[C@@H](CC(N)=O)C(=O)N[C@H](C(=O)NCC(=O)N[C@@H](CO)C(=O)N[C@@H](CCC(=O)O)C(=O)N[C@H](C(=O)N[C@@H](Cc1ccc(O)cc1)C(N)=O)[C@@H](C)O)C(C)C)[C@@H](C)O
notes: analogue of human amylin; also called compound 27
B2: N^ε1-[(4S)-4-carboxy-4-(19-carboxynonadecanoylamino)butanoyl]-[Arg17,Pro21,Pro27,His35]-h-amylin (peptide)
peptide: K([γGlu-C20 diacid])CNTATCATQRLANFLRHSSPNFGAIPSSTNVGSHTY-NH2
modifications: disulfide 2-7; N-terminus assumed
SMILES: CC[C@H](C)[C@H](NC(=O)[C@H](C)NC(=O)CNC(=O)[C@H](Cc1ccccc1)NC(=O)[C@H](CC(N)=O)NC(=O)[C@@H]1CCCN1C(=O)[C@H](CO)NC(=O)[C@H](CO)NC(=O)[C@H](Cc1c[nH]cn1)NC(=O)[C@H](CCCNC(=N)N)NC(=O)[C@H](CC(C)C)NC(=O)[C@H](Cc1ccccc1)NC(=O)[C@H](CC(N)=O)NC(=O)[C@H](C)NC(=O)[C@H](CC(C)C)NC(=O)[C@H](CCCNC(=N)N)NC(=O)[C@H](CCC(N)=O)NC(=O)[C@@H](NC(=O)[C@H](C)NC(=O)[C@@H]1CSSC[C@H](NC(=O)[C@@H](N)CCCCNC(=O)CC[C@H](NC(=O)CCCCCCCCCCCCCCCCCCC(=O)O)C(=O)O)C(=O)N[C@@H](CC(N)=O)C(=O)N[C@@H]([C@@H](C)O)C(=O)N[C@@H](C)C(=O)N[C@@H]([C@@H](C)O)C(=O)N1)[C@@H](C)O)C(=O)N1CCC[C@H]1C(=O)N[C@@H](CO)C(=O)N[C@@H](CO)C(=O)N[C@H](C(=O)N[C@@H](CC(N)=O)C(=O)N[C@H](C(=O)NCC(=O)N[C@@H](CO)C(=O)N[C@@H](Cc1c[nH]cn1)C(=O)N[C@H](C(=O)N[C@@H](Cc1ccc(O)cc1)C(N)=O)[C@@H](C)O)C(C)C)[C@@H](C)O
notes: analogue of human amylin; also called compound 60
B3: N^ε1-[(4S)-4-carboxy-4-(19-carboxynonadecanoylamino)butanoyl]-[Arg17,Pro21,Pro27,Lys35]-h-amylin (peptide)
peptide: K([γGlu-C20 diacid])CNTATCATQRLANFLRHSSPNFGAIPSSTNVGSKTY-NH2
modifications: disulfide 2-7; N-terminus assumed
SMILES: CC[C@H](C)[C@H](NC(=O)[C@H](C)NC(=O)CNC(=O)[C@H](Cc1ccccc1)NC(=O)[C@H](CC(N)=O)NC(=O)[C@@H]1CCCN1C(=O)[C@H](CO)NC(=O)[C@H](CO)NC(=O)[C@H](Cc1c[nH]cn1)NC(=O)[C@H](CCCNC(=N)N)NC(=O)[C@H](CC(C)C)NC(=O)[C@H](Cc1ccccc1)NC(=O)[C@H](CC(N)=O)NC(=O)[C@H](C)NC(=O)[C@H](CC(C)C)NC(=O)[C@H](CCCNC(=N)N)NC(=O)[C@H](CCC(N)=O)NC(=O)[C@@H](NC(=O)[C@H](C)NC(=O)[C@@H]1CSSC[C@H](NC(=O)[C@@H](N)CCCCNC(=O)CC[C@H](NC(=O)CCCCCCCCCCCCCCCCCCC(=O)O)C(=O)O)C(=O)N[C@@H](CC(N)=O)C(=O)N[C@@H]([C@@H](C)O)C(=O)N[C@@H](C)C(=O)N[C@@H]([C@@H](C)O)C(=O)N1)[C@@H](C)O)C(=O)N1CCC[C@H]1C(=O)N[C@@H](CO)C(=O)N[C@@H](CO)C(=O)N[C@H](C(=O)N[C@@H](CC(N)=O)C(=O)N[C@H](C(=O)NCC(=O)N[C@@H](CO)C(=O)N[C@@H](CCCCN)C(=O)N[C@H](C(=O)N[C@@H](Cc1ccc(O)cc1)C(N)=O)[C@@H](C)O)C(C)C)[C@@H](C)O
notes: analogue of human amylin; also called compound 35
B4: N^ε1-[(4S)-4-carboxy-4-(19-carboxynonadecanoylamino)butanoyl]-[Glu14,Arg17,Pro21,Pro27,Arg35]-h-amylin (peptide)
peptide: K([γGlu-C20 diacid])CNTATCATQRLAEFLRHSSPNFGAIPSSTNVGSRTY-NH2
modifications: disulfide 2-7; N-terminus assumed
SMILES: CC[C@H](C)[C@H](NC(=O)[C@H](C)NC(=O)CNC(=O)[C@H](Cc1ccccc1)NC(=O)[C@H](CC(N)=O)NC(=O)[C@@H]1CCCN1C(=O)[C@H](CO)NC(=O)[C@H](CO)NC(=O)[C@H](Cc1c[nH]cn1)NC(=O)[C@H](CCCNC(=N)N)NC(=O)[C@H](CC(C)C)NC(=O)[C@H](Cc1ccccc1)NC(=O)[C@H](CCC(=O)O)NC(=O)[C@H](C)NC(=O)[C@H](CC(C)C)NC(=O)[C@H](CCCNC(=N)N)NC(=O)[C@H](CCC(N)=O)NC(=O)[C@@H](NC(=O)[C@H](C)NC(=O)[C@@H]1CSSC[C@H](NC(=O)[C@@H](N)CCCCNC(=O)CC[C@H](NC(=O)CCCCCCCCCCCCCCCCCCC(=O)O)C(=O)O)C(=O)N[C@@H](CC(N)=O)C(=O)N[C@@H]([C@@H](C)O)C(=O)N[C@@H](C)C(=O)N[C@@H]([C@@H](C)O)C(=O)N1)[C@@H](C)O)C(=O)N1CCC[C@H]1C(=O)N[C@@H](CO)C(=O)N[C@@H](CO)C(=O)N[C@H](C(=O)N[C@@H](CC(N)=O)C(=O)N[C@H](C(=O)NCC(=O)N[C@@H](CO)C(=O)N[C@@H](CCCNC(=N)N)C(=O)N[C@H](C(=O)N[C@@H](Cc1ccc(O)cc1)C(N)=O)[C@@H](C)O)C(C)C)[C@@H](C)O
notes: analogue of human amylin; also called compound 51
B5: N^ε1-[(4S)-4-carboxy-4-(19-carboxynonadecanoylamino)butanoyl]-[His14,Arg17,Pro21,Pro27,His35]-h-amylin (peptide)
peptide: K([γGlu-C20 diacid])CNTATCATQRLAHFLRHSSPNFGAIPSSTNVGSHTY-NH2
modifications: disulfide 2-7; N-terminus assumed
SMILES: CC[C@H](C)[C@H](NC(=O)[C@H](C)NC(=O)CNC(=O)[C@H](Cc1ccccc1)NC(=O)[C@H](CC(N)=O)NC(=O)[C@@H]1CCCN1C(=O)[C@H](CO)NC(=O)[C@H](CO)NC(=O)[C@H](Cc1c[nH]cn1)NC(=O)[C@H](CCCNC(=N)N)NC(=O)[C@H](CC(C)C)NC(=O)[C@H](Cc1ccccc1)NC(=O)[C@H](Cc1c[nH]cn1)NC(=O)[C@H](C)NC(=O)[C@H](CC(C)C)NC(=O)[C@H](CCCNC(=N)N)NC(=O)[C@H](CCC(N)=O)NC(=O)[C@@H](NC(=O)[C@H](C)NC(=O)[C@@H]1CSSC[C@H](NC(=O)[C@@H](N)CCCCNC(=O)CC[C@H](NC(=O)CCCCCCCCCCCCCCCCCCC(=O)O)C(=O)O)C(=O)N[C@@H](CC(N)=O)C(=O)N[C@@H]([C@@H](C)O)C(=O)N[C@@H](C)C(=O)N[C@@H]([C@@H](C)O)C(=O)N1)[C@@H](C)O)C(=O)N1CCC[C@H]1C(=O)N[C@@H](CO)C(=O)N[C@@H](CO)C(=O)N[C@H](C(=O)N[C@@H](CC(N)=O)C(=O)N[C@H](C(=O)NCC(=O)N[C@@H](CO)C(=O)N[C@@H](Cc1c[nH]cn1)C(=O)N[C@H](C(=O)N[C@@H](Cc1ccc(O)cc1)C(N)=O)[C@@H](C)O)C(C)C)[C@@H](C)O
notes: analogue of human amylin; also called compound 66
B6: N^ε1-[(4S)-4-carboxy-4-(19-carboxynonadecanoylamino)butanoyl]-[His14,Arg17,Pro21,Pro27,Pro31]-h-amylin (peptide)
peptide: K([γGlu-C20 diacid])CNTATCATQRLAHFLRHSSPNFGAIPSSTPVGSNTY-NH2
modifications: disulfide 2-7; N-terminus assumed
SMILES: CC[C@H](C)[C@H](NC(=O)[C@H](C)NC(=O)CNC(=O)[C@H](Cc1ccccc1)NC(=O)[C@H](CC(N)=O)NC(=O)[C@@H]1CCCN1C(=O)[C@H](CO)NC(=O)[C@H](CO)NC(=O)[C@H](Cc1c[nH]cn1)NC(=O)[C@H](CCCNC(=N)N)NC(=O)[C@H](CC(C)C)NC(=O)[C@H](Cc1ccccc1)NC(=O)[C@H](Cc1c[nH]cn1)NC(=O)[C@H](C)NC(=O)[C@H](CC(C)C)NC(=O)[C@H](CCCNC(=N)N)NC(=O)[C@H](CCC(N)=O)NC(=O)[C@@H](NC(=O)[C@H](C)NC(=O)[C@@H]1CSSC[C@H](NC(=O)[C@@H](N)CCCCNC(=O)CC[C@H](NC(=O)CCCCCCCCCCCCCCCCCCC(=O)O)C(=O)O)C(=O)N[C@@H](CC(N)=O)C(=O)N[C@@H]([C@@H](C)O)C(=O)N[C@@H](C)C(=O)N[C@@H]([C@@H](C)O)C(=O)N1)[C@@H](C)O)C(=O)N1CCC[C@H]1C(=O)N[C@@H](CO)C(=O)N[C@@H](CO)C(=O)N[C@H](C(=O)N1CCC[C@H]1C(=O)N[C@H](C(=O)NCC(=O)N[C@@H](CO)C(=O)N[C@@H](CC(N)=O)C(=O)N[C@H](C(=O)N[C@@H](Cc1ccc(O)cc1)C(N)=O)[C@@H](C)O)C(C)C)[C@@H](C)O
notes: analogue of human amylin; also called compound 62

Biological target: T1, human calcitonin receptor
Test: cell-based or functional assay

In order of falling “hCTR funct. EC50” value:
1. B3  5.46 nM
2. B2  5.36 nM
3. B4  5.22 nM
4. B1  3 nM
5. B5  0.542 nM
6. B6  0.539 nM
